Our source for the Kd values is patent US20230174644A1.

The target in the assay is Recombinant nucleolin fused with a polyhistidine (His)6 tag, made in Pichia GS115 (human) (UniProt P19338). As to the kind of experiment: SPR (BIAcore 2000), ES amine-coupled on a CM5 chip, NL 62.5-500 nM in flow, 25° C., 1:1 Langmuir model. In general terms: In SPR one partner is held on a chip, and binding of the other changes the refractive index at the surface.
Sequence of UniProt P19338 (P19338 other isoform, or with tags, fused parts or gaps limits assumed): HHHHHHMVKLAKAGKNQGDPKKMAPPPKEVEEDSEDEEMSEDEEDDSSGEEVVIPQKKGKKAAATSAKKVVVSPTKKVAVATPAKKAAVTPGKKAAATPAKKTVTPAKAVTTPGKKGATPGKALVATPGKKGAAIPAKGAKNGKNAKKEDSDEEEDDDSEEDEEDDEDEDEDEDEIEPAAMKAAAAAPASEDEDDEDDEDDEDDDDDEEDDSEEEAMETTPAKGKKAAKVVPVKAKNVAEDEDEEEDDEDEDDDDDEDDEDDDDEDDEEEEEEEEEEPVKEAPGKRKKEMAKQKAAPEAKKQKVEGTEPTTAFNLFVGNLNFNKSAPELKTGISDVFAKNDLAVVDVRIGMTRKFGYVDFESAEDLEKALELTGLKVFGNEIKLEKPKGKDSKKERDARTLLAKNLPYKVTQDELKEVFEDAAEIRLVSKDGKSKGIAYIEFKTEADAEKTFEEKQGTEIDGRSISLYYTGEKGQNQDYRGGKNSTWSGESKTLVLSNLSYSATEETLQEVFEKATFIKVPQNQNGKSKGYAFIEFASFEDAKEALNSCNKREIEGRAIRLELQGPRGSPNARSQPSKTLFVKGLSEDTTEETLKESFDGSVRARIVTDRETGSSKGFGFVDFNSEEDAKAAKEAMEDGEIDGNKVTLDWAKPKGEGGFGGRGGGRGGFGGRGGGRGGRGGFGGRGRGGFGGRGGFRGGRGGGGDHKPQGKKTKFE

By Kd is commonly meant a measure of binding affinity in units of concentration. On to “Endostatin (recombinant, with N-terminal His-tag) (from UniProt P39060 1572-1754) (ligand)”, for which the Kd was determined as 0.0232 µM.
